The chains are these.
T1: human BTLA (human, UniProt Q7Z6A9 31-289)
T1 construct: also called hBTLA; HEK293.hBTLA
T1 sequence: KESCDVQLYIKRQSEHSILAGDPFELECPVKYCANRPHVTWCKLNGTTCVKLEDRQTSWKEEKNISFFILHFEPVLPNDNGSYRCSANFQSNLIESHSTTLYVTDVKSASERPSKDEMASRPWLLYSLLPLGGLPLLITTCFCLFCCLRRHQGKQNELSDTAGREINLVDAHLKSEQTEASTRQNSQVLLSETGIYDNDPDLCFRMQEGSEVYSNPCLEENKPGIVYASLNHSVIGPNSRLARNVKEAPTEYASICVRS

B1: HFB6-4hz13-hG1 (antibody, human IgG1, V domains shown)
VH: QVQLVQSGAEVKKPGSSVKVSCKTSGFNIKDTYIHWVRQAPGQGLEWIGRNDPANGNTKYAQKFQGRATITADESTSTAYMELSSLRSEDTAVYYCASYEGYYERFGYWGQGTLVTVSS
VL: EIVLTQSPGTLSLSPGERATLSCRSSQSLLDRDGKTYLNWLQQKPGQAPRRLIYLVSKLDSGIPDRFSGSGSGTDFTLTISRLEPEDFAVYYCWQDTHFPYTFGQGTKLEIK
notes: Humanized variant of HFB6-4, human IgG1 (hG1)
B2: HFB6-4hz15-hG1 (antibody, human IgG1, V domains shown)
VH: EVQLVESGGGLVQPGRSLRLSCTTSGFNIKDTYIHWFRQAPGKGLEWVGRNDPANGNTKYTASFKGRATISADGSKSIAYLQMNSLKTEDTAVYYCASYEGYYERFGYWGQGTLVTVSS
VL: EIVLTQSPGTLSLSPGERATLSCRSSQSLLDRDGKTYLNWLQQKPGQAPRRLIYLVSKLDSGIPDRFSGSGSGTDFTLTISRLEPEDFAVYYCWQDTHFPYTFGQGTKLEIK
notes: as for B1
B3: HFB6-4hz19-hG1 (antibody, human IgG1, V domains shown)
VH: QVQLVQSGAEVKKPGSSVKVSCKTSGFNIKDTYIHWVRQAPGQGLEWIGRNDPANGNTKYAQKFQGRATITADESTSTAYMELSSLRSEDTAVYYCASYEGYYERFGYWGQGTLVTVSS
VL: DIVMTQSPDSLAVSLGERATINCKSSQSLLDRDGKTYLNWLQQKPGQSPKRLIYLVSKLDSGVPDRFSGSGSGTDFTLTISSLQAEDLAVYYCWQDTHFPYTFGQGTKLEIK
notes: as for B1
B4: HFB6-4hz17-hG1 (antibody, human IgG1, V domains shown)
VH: QVQLQESGPGLVKPSGTLSLTCAVSGFNIKDTYIHWVRQPPGKGLEWIGRNDPANGNTKYNPSFKSRATISADKSKNQASLKLSSVTAADTAVYYCASYEGYYERFGYWGQGTLVTVSS
VL: EIVLTQSPGTLSLSPGERATLSCRSSQSLLDRDGKTYLNWLQQKPGQAPRRLIYLVSKLDSGIPDRFSGSGSGTDFTLTISRLEPEDFAVYYCWQDTHFPYTFGQGTKLEIK
notes: as for B1
B5: HFB6-4hz18-hG1 (antibody, human IgG1, V domains shown)
VH: EVQLVQSGAEVKKPGESLKISCKTSGFNIKDTYIHWVRQMPGKGLEWIGRNDPANGNTKYSPSFQGQVTISADKSISTAYLQLSSLKASDTAMYYCASYEGYYERFGYWGQGTLVTVSS
VL: EIVLTQSPGTLSLSPGERATLSCRSSQSLLDRDGKTYLNWLQQKPGQAPRRLIYLVSKLDSGIPDRFSGSGSGTDFTLTISRLEPEDFAVYYCWQDTHFPYTFGQGTKLEIK
notes: as for B1
B6: HFB6-4hz14-hG1 (antibody, human IgG1, V domains shown)
VH: QVQLVQSGAEVKKPGASVKVSCKTSGFNIKDTYIHWVRQAPGQGLEWIGRNDPANGNTKYAQKFQGRVTMTADTSTSTVYMELSSLRSEDTAVYYCASYEGYYERFGYWGQGTLVTVSS
VL: EIVLTQSPGTLSLSPGERATLSCRSSQSLLDRDGKTYLNWLQQKPGQAPRRLIYLVSKLDSGIPDRFSGSGSGTDFTLTISRLEPEDFAVYYCWQDTHFPYTFGQGTKLEIK
notes: as for B1
B7: HFB6-4hz16-hG1 (antibody, human IgG1, V domains shown)
VH: EVQLVESGGGLVQPGGSLKLSCATSGFNIKDTYIHWVRQASGKGLEWIGRNDPANGNTKYAASFKGRATISADDSKNTAYLQLNSLKTEDTAVYYCASYEGYYERFGYWGQGTLVTVSS
VL: EIVLTQSPGTLSLSPGERATLSCRSSQSLLDRDGKTYLNWLQQKPGQAPRRLIYLVSKLDSGIPDRFSGSGSGTDFTLTISRLEPEDFAVYYCWQDTHFPYTFGQGTKLEIK
notes: as for B1
B8: HFB6-4hz20-hG1 (antibody, human IgG1, V domains shown)
VH: QVQLVQSGAEVKKPGASVKVSCKTSGFNIKDTYIHWVRQAPGQGLEWIGRNDPANGNTKYAQKFQGRVTMTADTSTSTVYMELSSLRSEDTAVYYCASYEGYYERFGYWGQGTLVTVSS
VL: DIVMTQSPDSLAVSLGERATINCKSSQSLLDRDGKTYLNWLQQKPGQSPKRLIYLVSKLDSGVPDRFSGSGSGTDFTLTISSLQAEDLAVYYCWQDTHFPYTFGQGTKLEIK
notes: as for B1
B9: HFB6-4hz10-hG1 (antibody, human IgG1, V domains shown)
VH: EVQLVESGGGLVQPGGSLKLSCATSGFNIKDTYIHWVRQASGKGLEWIGRNDPANGNTKYAASFKGRATISADDSKNTAYLQLNSLKTEDTAVYYCASYEGYYERFGYWGQGTLVTVSS
VL: DVVMTQSPLSLPVTLGQPASISCRSSQSLLDRDGKTYLNWLQQRPGQSPRRLIYLVSKRDSGVPDRFSGSGSGTDFTLKISRVEAEDVGVYYCWQDTHFPYTFGQGTKLEIK
notes: as for B1
B10: HFB6-4hz12-hG1 (antibody, human IgG1, V domains shown)
VH: EVQLVQSGAEVKKPGESLKISCKTSGFNIKDTYIHWVRQMPGKGLEWIGRNDPANGNTKYSPSFQGQVTISADKSISTAYLQLSSLKASDTAMYYCASYEGYYERFGYWGQGTLVTVSS
VL: DVVMTQSPLSLPVTLGQPASISCRSSQSLLDRDGKTYLNWLQQRPGQSPRRLIYLVSKRDSGVPDRFSGSGSGTDFTLKISRVEAEDVGVYYCWQDTHFPYTFGQGTKLEIK
notes: as for B1
B11: HFB6-4hz11-hG1 (antibody, human IgG1, V domains shown)
VH: QVQLQESGPGLVKPSGTLSLTCAVSGFNIKDTYIHWVRQPPGKGLEWIGRNDPANGNTKYNPSFKSRATISADKSKNQASLKLSSVTAADTAVYYCASYEGYYERFGYWGQGTLVTVSS
VL: DVVMTQSPLSLPVTLGQPASISCRSSQSLLDRDGKTYLNWLQQRPGQSPRRLIYLVSKRDSGVPDRFSGSGSGTDFTLKISRVEAEDVGVYYCWQDTHFPYTFGQGTKLEIK
notes: as for B1

The target in the assay is T1, human BTLA. In words: flow cytometry, HEK293 cells overexpressing human BTLA. The protocol:
HEK293 cells overexpressing human BTLA and Expi293 cells overexpressing cynomolus BTLA were incubated with different concentrations of humanized anti-BTLA antibodies. Anti-BTLA antibody binding to target cells were quantified with an AF647-conjugated anti-human IgG Fc secondary antibody by flow cytometry.
Background: In flow cytometry, cells or beads pass a laser one at a time.
With B1, the binding result was “binds”.
Turning to B2, the binding result is recorded as “binds”.
Regarding B3, the binding result is “binds”.
In the case of B4, the binding result is “binds”.
As for B5, the binding result is listed as “binds”.
For the molecule B6, the binding result is recorded as “binds”.
Regarding B7, the binding result is on record as “binds”.
The entry for B8 is “binds”; for B9 it is “binds”.
As for B10, the binding result is “binds”.
Take B11: the binding result is recorded as “binds”.

These data come from US20250388673A1 (HIFIBIO, published 2025).
